For this assay, the target named is partial heads (10am13am phage T4 heads that ejected most of their packaged DNA, keeping a ~8-kb piece) (bacteriophage T4) (UniProt P13334).
UniProt P13334, sequence (P13334 whole entry, looked up): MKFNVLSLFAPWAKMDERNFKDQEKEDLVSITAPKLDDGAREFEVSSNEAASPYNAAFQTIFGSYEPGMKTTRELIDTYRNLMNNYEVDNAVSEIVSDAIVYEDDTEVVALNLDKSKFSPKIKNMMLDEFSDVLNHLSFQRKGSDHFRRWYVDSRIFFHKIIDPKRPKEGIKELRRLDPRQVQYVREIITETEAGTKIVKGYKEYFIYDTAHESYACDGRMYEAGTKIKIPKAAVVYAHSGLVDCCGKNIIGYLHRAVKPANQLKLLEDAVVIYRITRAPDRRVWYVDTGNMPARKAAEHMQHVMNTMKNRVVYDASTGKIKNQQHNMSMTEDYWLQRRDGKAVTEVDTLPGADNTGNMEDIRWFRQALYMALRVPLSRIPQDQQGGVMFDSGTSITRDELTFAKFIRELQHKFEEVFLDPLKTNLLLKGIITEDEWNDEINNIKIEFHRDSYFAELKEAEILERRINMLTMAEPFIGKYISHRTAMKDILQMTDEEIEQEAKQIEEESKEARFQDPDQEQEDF

The substance “full-length gp17 (large terminase protein, packaging motor) (from UniProt P17312 1-610) (enzyme)” gave a single molecule optical tweezers: packaging rate of 10-kb DNA against 5 pN by head-gp17 complexes of 1100 bp/s.
